Patent US20240010704A1, “CHIMERIC SENSOR PROTEIN AND METHODS OF USE THEREOF” (Universitaet Leipzig, priority 2020, published 2024)
Where a chain is given by its changes, count along the chain named. Values belong to the molecule of their own block, whether it stands above or below them.

What was measured:
[1] = target: T1, γ-secretase (Drosophila melanogaster, UniProt O02194); experiment: Luciferase reporter assay in S2 cells, pharmacological inhibition of γ-secretase activity by DAPT; assay type: cell-based; settings: for reporter activity without DAPT vs. with 10 μM DAPT: FIG. 8C
T1 construct: endogenous in cells; host or cells: Drosophila S2 cells
Method: (§1) For transfection, mini- or midi-prepped plasmid DNA (Qiagen) for each construct was adjusted to a stock concentration 100 ng/μl using a nanophotometer (Implen). For individual transfections a total amount of 200 ng DNA per 96-well plate well was used and always contained 30 ng of lexAop>FLuc2 (test construct reporter) and Act5.1Cp>RLuc (transfection control reporter), respectively. Test constructs (X-NRS-LexA) and TEV protease plasmids were added at 1:1 ratio (equimolarly adjusted to lexAop>FLuc2) to the DNA mixes; each DNA mix was supplemented with empty pBSK-SK+ vector (Stratagene) to 200 ng. S2 cells were cultured in Schneider's Drosophila medium (Invitrogen, Cat. no. 21720-024). Cultures were maintained in an air incubator at 25° C. S2 cells were split and plated into individual wells of a 96-well plate at a concentration of 5×10^5/well on day 0. 24 hours after plating (day 1), cells were transfected with Lipofectamine 2000 (Invitrogen, #11668019) with the suitable 1:1 plasmid/reagent mixture according to manufacturer's instructions and incubated for 48 hours. When induction of the metallothionein-promoter was required, CuSO4 stock medium was added in each well of the experiment to a final concentration of 0.5 mM CuSO4 24 hrs after transfection (day 2).
(§2) Cells were lysed on day 3 (48 hrs after transfection) and luciferase measurements with the Dual-Glo luciferase assay system (Promega) were performed according to the manufacturer's protocol. In brief, the supernatant was removed from each well by aspiration and cells were incubated with 200 μl passive lysis buffer on a shaker at room temperature for 30 min. Lysates were analyzed in 96-well plates with a Victor2 plate reader luminometer (PerkinElmer). Firefly and Renilla luciferase luminescence signals were collected for 10 s. Relative luciferase activities were calculated for each sample individually as principally described in Potter et al. (ref. 23) according to the following formula:
(F/R)Empty=(Σi=1^nFEmpty^i/REmpty^i)/n,
(§3) where n=number of control samples; F=Firefly luciferase luminescence signal; R=Renilla luciferase luminescence signal; Empty=lexAop>FLuc2+Ac5.1p>RLuc+BSK-SK+. Each condition was executed at least in triplicate, the average and SEM were determined for each condition, and statistical significance was evaluated using Student's t test. Plasmids used for transfection in S2 cells were: N^ECN-LexA, N^EGF-LexA, ChiN-Test, pChiN1, pChiN2, pChiN3, lexAop-FLuc2, Ac5.1-RLuc, secTEVp, intraTEVp, pBSK-SK+.

[2] = test system: lexAop-FLuc reporter in Drosophila Schneider 2 (S2) cells; experiment: Luciferase (lexAop-FLuc) reporter assay of NRS sensor constructs in S2 cells; assay type: cell-based; settings: FIG. 9; for reporter activity in luciferase assays: S2 cells
Text: In order to conceptually establish the approach to fuse heterologous ECRs to the Notch^ITS to suppress its proteolytic activation, a sensor protein containing 4 immunoglobulin (Ig) domains of the human CD4 receptor fused to the Notch^ITS was engineered^28 (FIG. 7A).
As a positive control a constitutively active N^ECN-LexA receptor^34 with a constantly exposed S2 cleavage site was included (FIG. 7A,B).
Next, the extracellular CD4 repeats of the sensor protein were replaced with the ECR of an aGPCR, the Latrophilin/ADGRL-homolog CIRL/CG8639 (calcium independent receptor of α-latrotoxin) to enable the NRS to detect the physical dissociation of the NTF-CTF complex within the GAIN domain when appended to the Notch^ITS. Thus, the entire ECR of CIRL (including the GAIN domain, GPS, tethered agonist segment and predicted linker to the 7TM domain) was N-terminally fused to the NRS core (CIRL-NRS-LexA; FIG. 9). […] In order to distinguish between these two possibilities, we mutated the GPS of the sensor at the −2 position of its catalytic triad and replaced the conserved Histidin by an Alanine (FIG. 9) to block GAIN domain self-cleavage and eventual NTF release. […] This set of experiments establishes that the CIRL-NRS-LexA NRS can be used for monitoring the integrity of the NTF-CTF heterodimer clamped by the GAIN domain of CIRL.
as §1
as §2, with “In brief, the supernatant was removed from each well by aspiration and cells were incubated with 200 μl passive lysis buffer on a shaker at room temperature for 30 min.” left out, “formula: […]” for “formula:”
as §3, with “Plasmids used for transfection in S2 cells were: N^ECN-LexA, N^EGF-LexA, ChiN-Test, pChiN1, pChiN2, pChiN3, lexAop-FLuc2, Ac5.1-RLuc, secTEVp, intraTEVp, pBSK-SK+.” left out

[3] = test system: Drosophila melanogaster; experiment: In vivo expression analysis of genomically integrated cirl-NRS sensors (transcriptionally activated mCherry reporter); settings: adult animals; for sensor activity (lexAop-mCherry reporter expression): FIG. 11
Text: To test the utility of the NRS sensor principle in vivo, an existing genomic engineering platform^13,35 was used to encode NRS sensors in alleles of the adhesion GPCR cirl/CG8639 of Drosophila melanogaster. This places CIRL-NRS expression under the endogenous regulatory control of the cirl locus (FIG. 10A). The NRS design was adapted to generate minigenes for cirl-NRS-LexA, cirl^H>A-NRS-LexA and cirl-NRS^S3-LexA by fusing the genomic fragment encoding the CIRL-ECR to the NRS-LexA cDNA (FIG. 10A,B). The resulting transgenes were inserted in the cirl gene using phiC31-assisted transformation generating fly stocks expressing the different sensors variants from the cirl locus.
Next, the functionality of CIRL-NRS was further studied in anatomical expression analyses.
To control for potential misexpression inherent to the LexA transcriptional reporter, additional cirl-NRS transgenes alternatively terminating in Ga/4 or QF2 transcription factor cassettes were generated an analysed.

T1 sequence (O02194 whole entry): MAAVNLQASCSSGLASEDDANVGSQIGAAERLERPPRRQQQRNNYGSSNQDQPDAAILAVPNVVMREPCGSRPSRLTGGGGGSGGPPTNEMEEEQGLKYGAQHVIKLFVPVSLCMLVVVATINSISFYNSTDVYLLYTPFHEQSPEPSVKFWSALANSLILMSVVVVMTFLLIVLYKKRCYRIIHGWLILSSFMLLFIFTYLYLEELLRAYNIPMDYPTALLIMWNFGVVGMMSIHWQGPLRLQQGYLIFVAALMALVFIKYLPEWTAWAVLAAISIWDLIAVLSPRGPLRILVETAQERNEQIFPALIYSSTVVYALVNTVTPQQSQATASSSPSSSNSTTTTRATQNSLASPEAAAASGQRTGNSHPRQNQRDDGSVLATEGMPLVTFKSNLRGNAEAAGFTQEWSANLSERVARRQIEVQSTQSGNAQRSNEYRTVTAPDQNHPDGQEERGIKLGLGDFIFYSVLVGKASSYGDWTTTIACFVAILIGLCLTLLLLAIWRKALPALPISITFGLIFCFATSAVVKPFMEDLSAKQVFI
T1 sequence (Q9VC27 23-695 partner): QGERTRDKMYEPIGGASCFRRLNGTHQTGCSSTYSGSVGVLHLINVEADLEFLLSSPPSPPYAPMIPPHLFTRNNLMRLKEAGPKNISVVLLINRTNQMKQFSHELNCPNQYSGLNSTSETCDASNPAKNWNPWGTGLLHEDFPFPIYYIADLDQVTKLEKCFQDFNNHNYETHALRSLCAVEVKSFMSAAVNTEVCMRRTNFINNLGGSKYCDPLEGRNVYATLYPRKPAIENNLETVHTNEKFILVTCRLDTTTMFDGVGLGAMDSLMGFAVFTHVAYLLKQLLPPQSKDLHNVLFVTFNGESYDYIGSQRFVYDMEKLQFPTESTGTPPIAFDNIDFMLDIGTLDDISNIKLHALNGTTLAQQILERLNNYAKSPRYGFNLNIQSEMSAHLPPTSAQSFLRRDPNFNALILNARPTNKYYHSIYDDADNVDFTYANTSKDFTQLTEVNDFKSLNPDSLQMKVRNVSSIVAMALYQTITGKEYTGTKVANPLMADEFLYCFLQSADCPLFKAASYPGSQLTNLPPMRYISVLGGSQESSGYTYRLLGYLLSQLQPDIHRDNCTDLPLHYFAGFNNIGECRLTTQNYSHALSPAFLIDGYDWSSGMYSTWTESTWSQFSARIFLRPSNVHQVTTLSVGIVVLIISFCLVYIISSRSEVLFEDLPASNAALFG
T1 sequence (Q9VQG2 whole entry partner): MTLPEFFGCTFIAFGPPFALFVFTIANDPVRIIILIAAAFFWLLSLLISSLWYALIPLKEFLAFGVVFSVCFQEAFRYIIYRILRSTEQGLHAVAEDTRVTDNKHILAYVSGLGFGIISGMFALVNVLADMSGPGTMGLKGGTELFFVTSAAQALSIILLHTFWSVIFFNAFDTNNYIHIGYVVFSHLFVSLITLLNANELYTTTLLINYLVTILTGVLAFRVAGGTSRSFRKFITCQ
T1 sequence (Q86BE9 whole entry partner): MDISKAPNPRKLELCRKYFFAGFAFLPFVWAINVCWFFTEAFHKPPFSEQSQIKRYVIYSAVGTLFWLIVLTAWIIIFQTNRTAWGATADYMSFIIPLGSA

effect on reporter activity ([1]; 10 μM DAPT, S2 cells): abolished reporter activity
reporter activity without DAPT vs. with 10 μM DAPT ([1]; CD4-6TEVs-NRS-LexA construct): 3.6 ×
reporter activity without DAPT vs. with 10 μM DAPT ([1]; CD4-6TEVs-NRS-LexA+intraTEVp): 7.0 ×
reporter activity without DAPT vs. with 10 μM DAPT ([1]; CD4-6TEVs-NRS-LexA+secTEVp): 23.4 ×
reporter activity without DAPT vs. with 10 μM DAPT ([1]; Control): 1.1 ×
reporter activity without DAPT vs. with 10 μM DAPT ([1]; N^ECN-LexA construct): 43.7 ×
reporter activity without DAPT vs. with 10 μM DAPT ([1]; N^EGF-LexA construct): 5.8 ×
Molecule: C[C@H](NC(=O)Cc1cc(F)cc(F)c1)C(=O)N[C@H](C(=O)OC(C)(C)C)c1ccccc1 [DAPT]

B1: CIRL-NRS-LexA: entire ECR of CIRL N-terminally fused to the NRS core; full-length NTF release sensor for dmCIRL (protein)
chain: MKLCILLAVVAFVGLSLGETGFPKSLSVLNSRCAHKQSCGVLAATSMFGDPCPGTHKYLEAHYQCISAAQTSTTTNRPSPPPWVLSNGPPIFGNGSGLIHPPGVGAGAPPPPRLPTLPGVVGISGNPGLFNVPPQHTAVTHSTPSSSTTAVGGGRLKGGATSTTTTKHPAGRHDGLPPPPQLHHHHNHHGEDTASPTKPSSKLPAGGNATSPSNTRILTGVGGSGTDDGTLLTTKSSPNRPPGTAASGSVVPGNGSVVRTINNINLNAAGMSGGDDESKLFCGPTHARNLYWNMTRVGDVNVQPCPGGAAGIAKWRCVLMKRIPDSGYDEYDDDISSTTPAPSGGDCLHNSSSCEPPVSMAHKVNQRLRNFEPTWHPATPDLTQCRSLWLNNLEMRVNQRDSSLISIANDMSEVTSSKTLYGGDMLVTTKIIQTVSEKMMHDKETFPDQRQREAMIMELLHCVVKTGSNLLDESQLSSWLDLNPEDQMRVATSLLTGLEYNAFLLADTIIRERSVVQKVKNILLSVRVLETKTIQSSVVFPDSDQWPLSSDRIELPRAALIDNSEGGLVRIVFAAFDRLESILKPSYDHFDLKSSRSYAILSNDSDVNAGEIQQRLRILNSKVISASLGKGRHIQLSQPITLTLKHLKTENVTNPTCVFWNYIDHAWSANGCSLESTNRTHSVCSCNHLTNFAILMDVVDEHQHSLFTMFDGNMRPRIDTAAKHQLRNDFQIHSVRGIKNPGDEDNGEPPANVKYVITGIILVIIALAFFGMVLSTQRKRSGPPKLKALTARQQEVFDLIRDHISQTGMPPTRAEIAQRLGFRSPNAAEEHLKALARKGVIEIVSGASRGIRLLQEEEEGLPLVGRVAAGEPLLAQQHIEGHYQVDPSLFKPNADFLLRVSGMSMKDIGIMDGDLLAVHKTQDVRNGQVVVARIDDEVTVKRLKKQGNKVELLPENSEFKPIVVDLRQQSFTIEGLAVGVIRNGDWLEFPGIRRPAGIPGDLAPPTDVSLGDELHLDGEDVAMAHADALDDFDLDMLGDGDSPGPGFTPHDSAPYGALDMADFEFEQMFTDALGIDEYGGASRYLDPAFLYKVVSSATMDYKDHDGDYKDHDIDYKDDDDKHRST
modifications: Full-length NTF release sensor for dmCIRL used in Example 2
reporter activity in luciferase assays [2]: high activity
luciferase reporter activity, fold difference ([2]; vs. Cirl-NRS^S3-LexA): 23.7 ×
luciferase reporter activity, fold difference ([2]; vs. Cirl^H>A-NRS-LexA): 148.8 ×
sensor activity (lexAop-mCherry reporter expression) [3]: strong expression in the eye, proboscis and leg neurons
expression pattern with matching reporter transgenes ([3]; FIG. 12): strong activation

B2: CIRL-NRS^S3-LexA: NTF release sensor for dmCIRL, S3 cleavage site mutated (disabled γ-secretase recognition) (protein)
chain: B1 chain with V773K
modifications: Full-length NTF release sensor for dmCIRL (S3 cleavage site mutated)
reporter activity in luciferase assays [2]: no reporter activity
sensor activity (lexAop-mCherry reporter expression) [3]: completely abrogated

B3: CIRL^H>A-NRS-LexA: NTF release sensor for dmCIRL, GPS cleavage site mutated (His to Ala at −2) (protein)
chain: B1 chain with H688A
modifications: Full-length NTF release sensor for dmCIRL (GPS cleavage site mutated)
reporter activity in luciferase assays [2]: no reporter activity
sensor activity (lexAop-mCherry reporter expression) [3]: abrogated NRS activation
